Measurements taken from PMC3744643.

Columns and labels:
Settings in all cases: 10 mM Tris-HCl pH 7.5, 50 mM NaCl, 1 mM MgCl2, 0.5 mM EDTA, 0.5 mM DTT, 0.05 mg/ml poly(dI-dC), room temperature, 30 min; footprinting: same buffer, then …
[1] = test system: T1, His-AphA (Vibrio parahaemolyticus RIMD 2210633), ORF:4cf93ac0; assay: EMSA
T1 sequence: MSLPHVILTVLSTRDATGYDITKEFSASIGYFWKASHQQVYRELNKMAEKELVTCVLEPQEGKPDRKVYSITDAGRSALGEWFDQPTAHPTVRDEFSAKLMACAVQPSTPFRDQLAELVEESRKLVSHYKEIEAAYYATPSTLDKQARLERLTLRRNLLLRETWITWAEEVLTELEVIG

[2] = molecular target: T2, His-OpaR (Vibrio parahaemolyticus RIMD 2210633) (UniProt Q79YV4); assay: EMSA
T2 sequence: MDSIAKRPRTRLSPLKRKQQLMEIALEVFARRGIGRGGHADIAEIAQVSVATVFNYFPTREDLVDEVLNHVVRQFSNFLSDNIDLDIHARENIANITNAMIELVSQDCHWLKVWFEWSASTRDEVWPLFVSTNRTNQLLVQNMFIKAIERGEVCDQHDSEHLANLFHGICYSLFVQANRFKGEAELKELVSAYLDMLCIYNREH

[3] = test system: T1, His-AphA (Vibrio parahaemolyticus RIMD 2210633), ORF:4cf93ac0; assay: DNase I footprinting
[4] = molecular target: T2, His-OpaR (Vibrio parahaemolyticus RIMD 2210633); assay: DNase I footprinting

Sequence | binding [1] | binding [2] | binding [3] | binding [4]
AGCGGAGTCTTGTTTATTAACGTTTTTAGCGGGTTCAATTGCATTTTCTCTTTTTTGAGTCTTTACAATTTTTGTTTTATCTCCGCTATCGCTGCTATTTATAGATTTGTCTTTATTTTTTTCTTCCATCACAAGGACTCCATATAAATGATGGGGTTAATATATATATTCCTGCTAAATGAAAAATACTTCGGTTAGATTTTCTCG (double strand) [VPA1043 promoter probe (EMSA and footprinting)] | no binding | binds | no binding | binds
GAGTTGCTTCATAATAACTATTATTAGTTATAAATATCGCTTAATTTAAATCTAATTTAAAGATATAAAGGAGCGTATTTAAAATGAAGTTTTTGATACATCAATCATTAATTATCATTATTCAGATAATTTAATTAATACGAAATATGTCAATTAATAATGCTCTAGGAGATTAGCATGCAGTCTAATACGTATCTTAAATACGCAGATATTAAAGGTGAAGCGACAGCGGAAC (double strand) [VPA1027 (hcp2) promoter footprinting probe] |  |  | no binding | binds
TTGTGGAAACTCGTTATGGTCAATACCAATTTCATGAAAAACCTCGCCAAAGACCTGCTAAATATTTATATATCGATTTTTATAATTAGATTTGAAGCTTTAATTATTAACATTAAGATTAATAGAGTTCTTATAGCTGTTATAAAAACTATTGACGGCATAATGAATCATTTTTTTATCAAAGCAATCATGAATTGTTGAACAATTTTAAATATCCAACCAGGTTCAAATTTTTGACACTCAAACTTTCACCCGTCAA (double strand) [VPA1044 promoter probe (EMSA and footprinting)] | no binding | binds | no binding | binds
